Measured values reported in paper PMC9482650, “Quantitative fragmentomics allow affinity mapping of interactomes” (Nature Communications, 2022).
Positions count from the first letter of the chain named. One block for each binder: values may come before it.

Tests used:
Assay in all cases: holdup assay
Parameters in all cases: key: below the threshold = too weak to quantify, mostly under pKd 3.1 to 4
FRMPD3, Q5JV73 = molecular target: FRMPD3, Q5JV73
SNTB1, Q13884 = molecular target: T1, SNTB1, Q13884
T1 sequence (Q13884 107-205, limits assumed, looked up): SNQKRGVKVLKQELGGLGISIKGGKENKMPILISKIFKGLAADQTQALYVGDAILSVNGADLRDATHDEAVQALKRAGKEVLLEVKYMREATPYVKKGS

GRASP, Q7Z6J2 = molecular target: GRASP, Q7Z6J2
RAPGEF6, Q8TEU7 = molecular target: T2, RAPGEF6, Q8TEU7
T2 sequence (Q8TEU7 525-625, limits assumed, looked up): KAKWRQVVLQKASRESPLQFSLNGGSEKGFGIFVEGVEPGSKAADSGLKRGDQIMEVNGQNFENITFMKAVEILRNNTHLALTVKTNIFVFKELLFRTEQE

APBA1_1, Q02410 = molecular target: T3, APBA1_1, Q02410
T3 sequence (Q02410 651-752, limits assumed, looked up): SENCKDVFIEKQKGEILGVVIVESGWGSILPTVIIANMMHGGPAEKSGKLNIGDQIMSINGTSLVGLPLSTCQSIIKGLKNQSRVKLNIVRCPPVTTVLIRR

FRMPD1, Q5SYB0 = molecular target: T4, FRMPD1, Q5SYB0
T4 sequence (Q5SYB0 52-145, limits assumed, looked up): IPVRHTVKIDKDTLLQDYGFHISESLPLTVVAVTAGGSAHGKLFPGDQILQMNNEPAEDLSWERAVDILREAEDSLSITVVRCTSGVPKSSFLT

GRIP1_5, Q9Y3R0 = molecular target: T5, GRIP1_5, Q9Y3R0
T5 sequence (Q9Y3R0 568-668, limits assumed, looked up): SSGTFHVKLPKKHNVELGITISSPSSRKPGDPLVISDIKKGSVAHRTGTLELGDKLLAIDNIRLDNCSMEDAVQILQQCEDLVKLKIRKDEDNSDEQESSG

MAST1, Q9Y2H9 = molecular target: MAST1, Q9Y2H9
GRIP2_6, Q9C0E4 = molecular target: GRIP2_6, Q9C0E4
HTRA4, P83105 = molecular target: T6, HTRA4, P83105
T6 sequence (P83105 378-476, limits assumed, looked up): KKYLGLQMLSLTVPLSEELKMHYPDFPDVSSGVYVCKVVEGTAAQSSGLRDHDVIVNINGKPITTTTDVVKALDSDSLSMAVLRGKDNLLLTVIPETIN

NHERF3_3, Q5T2W1 = molecular target: T7, NHERF3_3, Q5T2W1
T7 sequence (Q5T2W1 238-333, limits assumed, looked up): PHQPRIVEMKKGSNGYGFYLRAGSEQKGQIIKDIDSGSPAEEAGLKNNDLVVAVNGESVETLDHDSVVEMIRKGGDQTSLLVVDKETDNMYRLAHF

DLG4_1, P78352 = molecular target: DLG4_1, P78352
NHERF3_1, Q5T2W1 = molecular target: T8, NHERF3_1, Q5T2W1
T8 sequence (Q5T2W1 4-100, limits assumed, looked up): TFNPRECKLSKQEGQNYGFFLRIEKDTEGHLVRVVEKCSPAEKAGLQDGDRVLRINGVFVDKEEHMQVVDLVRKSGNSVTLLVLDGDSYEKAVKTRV

GORASP2, Q9H8Y8 = molecular target: GORASP2, Q9H8Y8
LDB3, O75112 = molecular target: LDB3, O75112
MAGI2_2, Q86UL8 = molecular target: MAGI2_2, Q86UL8
LAP2, Q96RT1 = molecular target: LAP2, Q96RT1
LIN7B, Q9HAP6 = molecular target: T9, LIN7B, Q9HAP6
T9 sequence (Q9HAP6 88-185, limits assumed, looked up): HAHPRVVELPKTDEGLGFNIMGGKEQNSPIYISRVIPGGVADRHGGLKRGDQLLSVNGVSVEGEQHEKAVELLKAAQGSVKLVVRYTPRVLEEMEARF

APBA1_2, Q02410 = molecular target: T10, APBA1_2, Q02410
T10 sequence (Q02410 742-832, limits assumed, looked up): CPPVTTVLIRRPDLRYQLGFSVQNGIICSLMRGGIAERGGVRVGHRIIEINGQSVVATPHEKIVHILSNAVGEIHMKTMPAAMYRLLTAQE

GOPC, Q9HD26 = molecular target: GOPC, Q9HD26
APBA2_2, Q99767 = molecular target: T11, APBA2_2, Q99767
T11 sequence (Q99767 654-744, limits assumed, looked up): T10 sequence (Q02410 742-832, limits assumed, looked up) with R10K, R15K, P59A, H65Q, I66A, A70S, Y84F, A89G

GRIP1_4, Q9Y3R0 = molecular target: T12, GRIP1_4, Q9Y3R0
T12 sequence (Q9Y3R0 467-571, limits assumed, looked up): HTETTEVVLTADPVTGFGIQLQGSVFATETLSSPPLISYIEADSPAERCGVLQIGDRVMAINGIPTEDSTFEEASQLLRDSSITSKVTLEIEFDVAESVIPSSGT

DLG1_1, Q12959 = molecular target: DLG1_1, Q12959
Inadl_6, Q8NI35 = molecular target: Inadl_6, Q8NI35
PARD3_3, Q8TEW0 = molecular target: PARD3_3, Q8TEW0
DLG2_3, Q15700 = molecular target: DLG2_3, Q15700
[1] = plain residues with an end cap or a label only (N-terminal biotin on a linker: ado-ado)
[2] = modified: phospho on T at position -1 from the C-terminal residue
[3] = modified: phospho on T at position -2 from the C-terminal residue

Sequence of LAP2, Q96RT1 (Q96RT1 other isoform, or with tags, fused parts or gaps): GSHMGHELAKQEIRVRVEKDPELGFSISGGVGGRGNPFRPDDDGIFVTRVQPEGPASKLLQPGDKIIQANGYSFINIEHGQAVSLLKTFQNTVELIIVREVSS
Sequence of GRIP2_6, Q9C0E4 (Q9C0E4 648-740): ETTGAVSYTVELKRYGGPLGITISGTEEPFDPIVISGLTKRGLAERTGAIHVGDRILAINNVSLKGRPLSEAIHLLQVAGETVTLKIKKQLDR
Sequence of LDB3, O75112 (O75112 1-94): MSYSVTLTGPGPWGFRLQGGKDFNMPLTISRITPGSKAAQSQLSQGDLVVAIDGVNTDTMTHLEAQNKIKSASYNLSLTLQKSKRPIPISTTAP
Sequence of GRASP, Q7Z6J2 (Q7Z6J2 96-193): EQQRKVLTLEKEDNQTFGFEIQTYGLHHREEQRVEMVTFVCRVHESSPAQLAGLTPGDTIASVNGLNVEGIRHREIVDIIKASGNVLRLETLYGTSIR
Sequence of Inadl_6, Q8NI35 (Q8NI35 1058-1167): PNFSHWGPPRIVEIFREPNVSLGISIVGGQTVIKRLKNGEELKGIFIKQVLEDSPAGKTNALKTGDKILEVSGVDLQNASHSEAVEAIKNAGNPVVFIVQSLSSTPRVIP
Sequence of MAST1, Q9Y2H9 (Q9Y2H9 962-1065): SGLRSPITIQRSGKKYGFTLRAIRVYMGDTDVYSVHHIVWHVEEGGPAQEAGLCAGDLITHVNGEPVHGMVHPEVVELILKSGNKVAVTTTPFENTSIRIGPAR
Sequence of DLG4_1, P78352 (P78352 62-152): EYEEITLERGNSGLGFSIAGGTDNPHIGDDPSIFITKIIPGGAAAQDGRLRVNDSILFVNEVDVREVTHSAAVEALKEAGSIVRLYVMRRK
Sequence of MAGI2_2, Q86UL8 (Q86UL8 410-522): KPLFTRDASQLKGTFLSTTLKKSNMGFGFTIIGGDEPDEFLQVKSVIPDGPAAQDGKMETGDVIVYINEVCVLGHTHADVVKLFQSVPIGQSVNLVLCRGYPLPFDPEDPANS
Sequence of FRMPD3, Q5JV73 (Q5JV73 12-100): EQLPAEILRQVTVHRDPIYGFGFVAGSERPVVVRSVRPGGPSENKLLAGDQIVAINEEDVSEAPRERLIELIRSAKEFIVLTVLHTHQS
Sequence of PARD3_3, Q8TEW0 (Q8TEW0 582-685): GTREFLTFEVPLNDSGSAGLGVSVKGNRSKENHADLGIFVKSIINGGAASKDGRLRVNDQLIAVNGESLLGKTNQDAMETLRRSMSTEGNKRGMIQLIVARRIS

pKd (FRMPD3, Q5JV73; [1]): below the threshold
pKd (SNTB1, Q13884; [1]): 4.07
pKd (GRASP, Q7Z6J2; [1]): 4.3
pKd (RAPGEF6, Q8TEU7; [1]): below the threshold
pKd (APBA1_1, Q02410; [1]): below the threshold
pKd (FRMPD1, Q5SYB0; [1]): below the threshold
pKd (GRIP1_5, Q9Y3R0; [1]): below the threshold
pKd (MAST1, Q9Y2H9; [1]): 4.29
pKd (GRIP2_6, Q9C0E4; [1]): below the threshold
pKd (HTRA4, P83105; [1]): below the threshold
pKd (NHERF3_3, Q5T2W1; [1]): below the threshold
pKd (DLG4_1, P78352; [1]): 4.51
pKd (NHERF3_1, Q5T2W1; [1]): below the threshold
pKd (GORASP2, Q9H8Y8; [1]): below the threshold
pKd (LDB3, O75112; [1]): below the threshold
pKd (MAGI2_2, Q86UL8; [1]): 5.03
pKd (LAP2, Q96RT1; [1]): 3.49
pKd (LIN7B, Q9HAP6; [1]): below the threshold
pKd (APBA1_2, Q02410; [1]): 3.73
pKd (GOPC, Q9HD26; [1]): below the threshold
pKd (APBA2_2, Q99767; [1]): below the threshold
pKd (GRIP1_4, Q9Y3R0; [1]): below the threshold
pKd (DLG1_1, Q12959; [1]): 4.42
pKd (Inadl_6, Q8NI35; [1]): below the threshold
pKd (PARD3_3, Q8TEW0; [1]): below the threshold
pKd (DLG2_3, Q15700; [1]): 4.89
Binder: SMLNRRTTPV [CACNG4, Q9UBN1]

pKd (FRMPD3, Q5JV73; [1]): below the threshold
pKd (SNTB1, Q13884; [1]): below the threshold
pKd (GRASP, Q7Z6J2; [1]): 4.13
pKd (RAPGEF6, Q8TEU7; [1]): below the threshold
pKd (APBA1_1, Q02410; [1]): below the threshold
pKd (FRMPD1, Q5SYB0; [1]): below the threshold
pKd (GRIP1_5, Q9Y3R0; [1]): below the threshold
pKd (MAST1, Q9Y2H9; [1]): below the threshold
pKd (GRIP2_6, Q9C0E4; [1]): below the threshold
pKd (HTRA4, P83105; [1]): below the threshold
pKd (NHERF3_3, Q5T2W1; [1]): below the threshold
pKd (DLG4_1, P78352; [1]): below the threshold
pKd (NHERF3_1, Q5T2W1; [1]): below the threshold
pKd (GORASP2, Q9H8Y8; [1]): below the threshold
pKd (LDB3, O75112; [1]): below the threshold
pKd (MAGI2_2, Q86UL8; [1]): below the threshold
pKd (LAP2, Q96RT1; [1]): below the threshold
pKd (LIN7B, Q9HAP6; [1]): 3.85
pKd (APBA1_2, Q02410; [1]): below the threshold
pKd (GOPC, Q9HD26; [1]): below the threshold
pKd (APBA2_2, Q99767; [1]): below the threshold
pKd (GRIP1_4, Q9Y3R0; [1]): below the threshold
pKd (DLG1_1, Q12959; [1]): below the threshold
pKd (Inadl_6, Q8NI35; [1]): below the threshold
pKd (PARD3_3, Q8TEW0; [1]): below the threshold
pKd (DLG2_3, Q15700; [1]): 3.72
Binder: LSEFKAMDSF [CTNNA2, P26232]

The next lines start with the binder.

Binder: RRVRKLPSTTL [RPS6KA1_-1P, Q15418]
pKd (FRMPD3, Q5JV73; [2]): below the threshold
pKd (SNTB1, Q13884; [2]): 3.91
pKd (GRASP, Q7Z6J2; [2]): 3.8
pKd (RAPGEF6, Q8TEU7; [2]): 3.38
pKd (APBA1_1, Q02410; [2]): 3.56
pKd (FRMPD1, Q5SYB0; [2]): below the threshold
pKd (GRIP1_5, Q9Y3R0; [2]): below the threshold
pKd (MAST1, Q9Y2H9; [2]): 4.5
pKd (GRIP2_6, Q9C0E4; [2]): below the threshold
pKd (HTRA4, P83105; [2]): 3.48
pKd (NHERF3_3, Q5T2W1; [2]): 3.36
pKd (DLG4_1, P78352; [2]): 3.8
pKd (NHERF3_1, Q5T2W1; [2]): 4.2
pKd (GORASP2, Q9H8Y8; [2]): 3.76
pKd (LDB3, O75112; [2]): 3.62
pKd (MAGI2_2, Q86UL8; [2]): 3.92
pKd (LAP2, Q96RT1; [2]): below the threshold
pKd (LIN7B, Q9HAP6; [2]): 3.56
pKd (APBA1_2, Q02410; [2]): below the threshold
pKd (GOPC, Q9HD26; [2]): 4.66
pKd (APBA2_2, Q99767; [2]): below the threshold
pKd (GRIP1_4, Q9Y3R0; [2]): 3.36
pKd (DLG1_1, Q12959; [2]): 3.82
pKd (Inadl_6, Q8NI35; [2]): 3.52
pKd (PARD3_3, Q8TEW0; [2]): 3.84
pKd (DLG2_3, Q15700; [2]): 3.74

Binder: GQSVDLVFPV [AKIP1, Q9NQ31]
pKd (FRMPD3, Q5JV73; [1]): 3.68
pKd (SNTB1, Q13884; [1]): below the threshold
pKd (GRASP, Q7Z6J2; [1]): 3.48
pKd (RAPGEF6, Q8TEU7; [1]): below the threshold
pKd (APBA1_1, Q02410; [1]): below the threshold
pKd (FRMPD1, Q5SYB0; [1]): below the threshold
pKd (GRIP1_5, Q9Y3R0; [1]): below the threshold
pKd (MAST1, Q9Y2H9; [1]): 4.1
pKd (GRIP2_6, Q9C0E4; [1]): below the threshold
pKd (HTRA4, P83105; [1]): below the threshold
pKd (NHERF3_3, Q5T2W1; [1]): below the threshold
pKd (DLG4_1, P78352; [1]): 3.6
pKd (NHERF3_1, Q5T2W1; [1]): below the threshold
pKd (GORASP2, Q9H8Y8; [1]): 4.37
pKd (LDB3, O75112; [1]): below the threshold
pKd (MAGI2_2, Q86UL8; [1]): below the threshold
pKd (LAP2, Q96RT1; [1]): below the threshold
pKd (LIN7B, Q9HAP6; [1]): below the threshold
pKd (APBA1_2, Q02410; [1]): 3.85
pKd (GOPC, Q9HD26; [1]): below the threshold
pKd (APBA2_2, Q99767; [1]): below the threshold
pKd (GRIP1_4, Q9Y3R0; [1]): below the threshold
pKd (DLG1_1, Q12959; [1]): below the threshold
pKd (Inadl_6, Q8NI35; [1]): below the threshold
pKd (PARD3_3, Q8TEW0; [1]): 3.66
pKd (DLG2_3, Q15700; [1]): below the threshold

Binder: RRVRKLPSTTL [RPS6KA1_-2P, Q15418]
pKd (FRMPD3, Q5JV73; [3]): below the threshold
pKd (SNTB1, Q13884; [3]): below the threshold
pKd (GRASP, Q7Z6J2; [3]): below the threshold
pKd (RAPGEF6, Q8TEU7; [3]): below the threshold
pKd (APBA1_1, Q02410; [3]): below the threshold
pKd (FRMPD1, Q5SYB0; [3]): below the threshold
pKd (GRIP1_5, Q9Y3R0; [3]): below the threshold
pKd (MAST1, Q9Y2H9; [3]): below the threshold
pKd (GRIP2_6, Q9C0E4; [3]): below the threshold
pKd (HTRA4, P83105; [3]): below the threshold
pKd (NHERF3_3, Q5T2W1; [3]): below the threshold
pKd (DLG4_1, P78352; [3]): below the threshold
pKd (NHERF3_1, Q5T2W1; [3]): below the threshold
pKd (GORASP2, Q9H8Y8; [3]): 3.71
pKd (LDB3, O75112; [3]): 3.47
pKd (MAGI2_2, Q86UL8; [3]): below the threshold
pKd (LAP2, Q96RT1; [3]): below the threshold
pKd (LIN7B, Q9HAP6; [3]): below the threshold
pKd (APBA1_2, Q02410; [3]): below the threshold
pKd (GOPC, Q9HD26; [3]): below the threshold
pKd (APBA2_2, Q99767; [3]): below the threshold
pKd (GRIP1_4, Q9Y3R0; [3]): below the threshold
pKd (DLG1_1, Q12959; [3]): 3.58
pKd (Inadl_6, Q8NI35; [3]): below the threshold
pKd (PARD3_3, Q8TEW0; [3]): below the threshold
pKd (DLG2_3, Q15700; [3]): below the threshold
